Values of other authors as cited in PMC6289583.
pKd: −log10 of the molar value.

How the values were obtained:
Moesin = Moesin (UniProt P26038)
ICAM-2 (Homo sapiens) = ICAM-2 (Homo sapiens) (UniProt P13598)
EBP50 (Homo sapiens) = EBP50 (Homo sapiens) (UniProt O14745); experiment: SPR
Chain of EBP50 (Homo sapiens) (O14745 2-358): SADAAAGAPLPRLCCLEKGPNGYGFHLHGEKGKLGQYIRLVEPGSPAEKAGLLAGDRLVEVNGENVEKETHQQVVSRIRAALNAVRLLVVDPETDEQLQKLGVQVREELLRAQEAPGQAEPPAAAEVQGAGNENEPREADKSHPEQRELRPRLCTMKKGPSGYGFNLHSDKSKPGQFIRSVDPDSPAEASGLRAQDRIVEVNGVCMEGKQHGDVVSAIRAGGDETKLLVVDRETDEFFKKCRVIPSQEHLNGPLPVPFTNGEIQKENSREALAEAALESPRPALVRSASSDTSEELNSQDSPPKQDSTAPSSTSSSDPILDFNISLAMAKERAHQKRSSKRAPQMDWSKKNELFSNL

Chain of Ezrin (P15311 whole entry): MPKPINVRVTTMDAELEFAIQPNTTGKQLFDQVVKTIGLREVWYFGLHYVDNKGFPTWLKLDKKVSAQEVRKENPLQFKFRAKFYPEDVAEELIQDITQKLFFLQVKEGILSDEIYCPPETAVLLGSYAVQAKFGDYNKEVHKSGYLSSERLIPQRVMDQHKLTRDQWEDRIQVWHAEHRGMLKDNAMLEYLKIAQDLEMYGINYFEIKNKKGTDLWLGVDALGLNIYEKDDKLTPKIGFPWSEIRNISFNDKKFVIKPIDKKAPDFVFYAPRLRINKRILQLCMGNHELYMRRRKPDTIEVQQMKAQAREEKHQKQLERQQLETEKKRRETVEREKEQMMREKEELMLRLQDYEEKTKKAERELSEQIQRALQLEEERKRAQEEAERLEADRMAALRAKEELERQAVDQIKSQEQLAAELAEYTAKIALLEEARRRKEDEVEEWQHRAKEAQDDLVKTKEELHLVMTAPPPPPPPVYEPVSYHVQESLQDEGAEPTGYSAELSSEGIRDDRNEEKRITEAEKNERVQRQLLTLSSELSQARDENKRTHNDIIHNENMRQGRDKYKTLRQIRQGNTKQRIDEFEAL
Chain of Moesin (P26038 2-577): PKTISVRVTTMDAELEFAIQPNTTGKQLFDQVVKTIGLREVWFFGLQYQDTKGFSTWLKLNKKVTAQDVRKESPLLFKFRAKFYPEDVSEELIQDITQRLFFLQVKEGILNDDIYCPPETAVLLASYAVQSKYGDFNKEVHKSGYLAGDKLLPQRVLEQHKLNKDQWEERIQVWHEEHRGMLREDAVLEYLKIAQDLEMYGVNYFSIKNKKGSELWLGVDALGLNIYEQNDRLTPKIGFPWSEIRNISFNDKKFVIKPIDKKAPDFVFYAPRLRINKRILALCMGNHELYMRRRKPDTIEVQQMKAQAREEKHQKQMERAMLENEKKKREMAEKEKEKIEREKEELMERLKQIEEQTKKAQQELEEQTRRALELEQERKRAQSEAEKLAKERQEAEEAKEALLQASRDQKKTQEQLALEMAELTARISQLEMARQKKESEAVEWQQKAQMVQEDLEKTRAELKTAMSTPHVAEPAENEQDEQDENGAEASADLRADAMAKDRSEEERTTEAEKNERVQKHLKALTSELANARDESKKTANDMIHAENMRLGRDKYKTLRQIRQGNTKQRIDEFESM
Chain of ICAM-2 (Homo sapiens) (P13598 25-275): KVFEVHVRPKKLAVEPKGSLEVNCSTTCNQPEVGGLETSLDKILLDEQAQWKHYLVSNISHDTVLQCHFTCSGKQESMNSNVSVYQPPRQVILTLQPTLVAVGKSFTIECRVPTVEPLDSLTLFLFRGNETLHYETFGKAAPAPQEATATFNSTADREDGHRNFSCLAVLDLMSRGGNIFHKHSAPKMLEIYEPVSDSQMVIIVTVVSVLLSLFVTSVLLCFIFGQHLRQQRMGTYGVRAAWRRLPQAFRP
Chain of CD44 cytoplasmic domain (P16070 671-742): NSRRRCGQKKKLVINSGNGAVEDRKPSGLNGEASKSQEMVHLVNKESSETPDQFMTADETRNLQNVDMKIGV

pKd (Moesin)	pKd (ICAM-2 (Homo sapiens))	pKd (EBP50 (Homo sapiens))	Substance
8.03			CD44 cytoplasmic domain (from UniProt P16070)
	6.48	7.24	Ezrin (from UniProt P15311)
